In PMC7812809 (Proceedings of the National Academy of Sciences of the …, 2020):
Changes are numbered by the printed parent chain. Numbers in names are those of the source. Blank lines part the entries; values can stand above or below the molecule they belong to.

Legend:
Experiment in all cases: negative stain EM
[1] = molecular target: Dendra2 T69A-LdcI (N-terminal fluorescent protein fusion of LdcI) (not stated | E. coli) (UniProt P0A9H3)
[2] = molecular target: LdcI E445A/D447A/R468E triple mutant (E. coli) (UniProt P0A9H3)
[3] = molecular target: LdcI R97E/R468E double mutant (E. coli) (UniProt P0A9H3)
[4] = molecular target: LdcI-Dendra2 T69A (C-terminal fluorescent protein fusion of LdcI) (E. coli | not stated) (UniProt P0A9H3)
[5] = molecular target: LdcI-mGeosM (C-terminal fluorescent protein fusion of LdcI) (E. coli | not stated) (UniProt P0A9H3)
[6] = molecular target: the molecule itself

stoichiometry N [1]: 2
Molecule: Dendra2 T69A-LdcI (N-terminal fluorescent protein fusion of LdcI) (from UniProt P0A9H3 1-715) (enzyme)

stoichiometry N [2]: 10
Molecule: LdcI E445A/D447A/R468E triple mutant (from UniProt P0A9H3 1-715) (enzyme)

stoichiometry N [3]: 10
Molecule: LdcI R97E/R468E double mutant (from UniProt P0A9H3 1-715) (enzyme)

stoichiometry N [4]: 10
Molecule: LdcI-Dendra2 T69A (C-terminal fluorescent protein fusion of LdcI) (from UniProt P0A9H3 1-715) (enzyme)

stoichiometry N [5]: 10
Molecule: LdcI-mGeosM (C-terminal fluorescent protein fusion of LdcI) (from UniProt P0A9H3 1-715) (enzyme)

B1: LdcI E445A/D447A double mutant (enzyme, E. coli)
chain: MNVIAILNHMGVYFKEEPIRELHRALERLNFQIVYPNDRDDLLKLIENNARLCGVIFDWDKYNLELCEEISKMNENLPLYAFANTYSTLDVSLNDLRLQISFFEYALGAAEDIANKIKQTTDEYINTILPPLTKALFKYVREGKYTFCTPGHMGGTAFQKSPVGSLFYDFFGPNTMKSDISISVSELGSLLDHSGPHKEAEQYIARVFNADRSYMVTNGTSTANKIVGMYSAPAGSTILIDRNCHKSLTHLMMMSDVTPIYFRPTRNAYGILGGIPQSEFQHATIAKRVKETPNATWPVHAVITNSTYDGLLYNTDFIKKTLDVKSIHFDSAWVPYTNFSPIYEGKCGMSGGRVEGKVIYETQSTHKLLAAFSQASMIHVKGDVNEETFNEAYMMHTTTSPHYGIVASTETAAAMMKGNAGKRLINGSIERAIKFRKEIKRLRTASAGWFFDVWQPDHIDTTECWPLRSDSTWHGFKNIDNEHMYLDPIKVTLLTPGMEKDGTMSDFGIPASIVAKYLDEHGIVVEKTGPYNLLFLFSIGIDKTKALSLLRALTDFKRAFDLNLRVKNMLPSLYREDPEFYENMRIQELAQNIHKLIVHHNLPDLMYRAFEVLPTMVMTPYAAFQKELHGMTEEVYLDEMVGRINANMILPYPPGVPLVMPGEMITEESRPVLEFLQMLCEIGAHYPGFETDIHGAYRQADGRYTVKVLKEESKK
binding result [6]: binds

B2: LdcI H694A (enzyme, E. coli)
chain: B1 chain with A445E, A447D, H694A
binding result [6]: binds

B3: LdcI R97E (enzyme, E. coli)
chain: B1 chain with R97E, A445E, A447D
binding result [6]: binds

B4: LdcI H694N (enzyme, E. coli)
chain: B1 chain with A445E, A447D, H694N
binding result [6]: binds
